The Immune Epitope Database (IEDB)

Experiments:
[1] = biological target: HLA-A*03:01; test: IEDB peptide-MHC binding, purified MHC/direct/fluorescence; filed as Kd, often an IC50 or EC50 that approximates it; ≥ and ≤ were set here for values at or beyond the usual limits of such assays; conditions: source organism: SARS-CoV1
[2] = biological target: HLA-A*11:01; test: as above; conditions: source organism: SARS-CoV1

Row | Sequence | Kd [1] | Kd [2]
1 | AITTSNCAK | 646 nM | 54 nM
2 | ALRANSAVK | 197 nM | 1760 nM
3 | ASLPTTIAK | 56 nM | 19 nM
4 | ATFSVPMEK | 265 nM | 28 nM
5 | ATNNVFRLK | 401 nM | 233 nM
6 | ATVVIGTSK | 232 nM | 30 nM
7 | AVDPAKAYK | 1670 nM | 124 nM
8 | AVLQSGFRK | 259 nM | 80 nM
9 | GTLSYDNLK | 365 nM | 48 nM
10 | GVAMPNLYK | 60 nM | 73 nM
11 | ITCVVIPSK | 1880 nM | 290 nM
12 | KCYGVSATK | 2070 nM | 8380 nM
13 | KLFAAETLK |  | 234 nM
14 | KMQRMLLEK | 305 nM | 341 nM
15 | KVIQPRVEK | 595 nM | 168 nM
16 | LIGANYLGK | 999 nM | 1470 nM
17 | QLFKPLTKK | 215 nM | 237 nM
18 | RLYYDSMSY | 52 nM | 237 nM
19 | SSNVANYQK | 442 nM | 23 nM
20 | SSSLTSLLK | 276 nM | 51 nM
21 | VTFQGKFKK | 321 nM | 91 nM
22 | VVYRGTTTY | 42 nM | 117 nM
23 | YIFFASFYY | 1180 nM | 347 nM
